The values that follow come from doi:10.1101/2024.10.13.617916.

In this test the target is KaiB labeled with 6-iodoacetamidofluorescein (KaiB-6IAF) (Synechococcus elongatus) (UniProt Q79PF5). The test is described as follows: other fluorescence titration.
Sequence of UniProt Q79PF5 (Q79PF5 whole entry): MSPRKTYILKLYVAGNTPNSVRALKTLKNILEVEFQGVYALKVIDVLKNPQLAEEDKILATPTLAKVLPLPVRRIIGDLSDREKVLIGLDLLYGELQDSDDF

B1: KaiC (natural protein)
chain: MTSAEMTSPNNNSEHQAIAKMRTMIEGFDDISHGGLPIGRSTLVSGTSGTGKTLFSIQFLYNGIIEFDEPGVFVTFEETPQDIIKNARSFGWDLAKLVDEGKLFILDASPDPEGQEVVGGFDLSALIERINYAIQKYRARRVSIDSVTSVFQQYDASSVVRRELFRLVARLKQIGATTVMTTERIEEYGPIARYGVEEFVSDNVVILRNVLEGERRRRTLEILKLRGTSHMKGEYPFTITDHGINIFPLGAMRLTQRSSNVRVSSGVVRLDEMCGGGFFKDSIILATGATGTGKTLLVSRFVENACANKERAILFAYEESRAQLLRNAYSWGMDFEEMERQNLLKIVCAYPESAGLEDHLQIIKSEINDFKPARIAIDSLSALARGVSNNAFRQFVIGVTGYAKQEEITGLFTNTSDQFMGAHSITDSHISTITDTIILLQYVEIRGEMSRAINVFKMRGSWHDKAIREFMISDKGPDIKDSFRNFERIISGSPTRITVDEKSELSRIVRGVQEKGPES
Consider B1, for which the decrease of KaiB-6IAF fluorescence intensity at 3.5 uM KaiC turned out to be 60% and the maximal quenching of KaiB-6IAF was 40%.
